Assay results reported in publication PMC4467669, “Targeted inhibition of the Shroom3–Rho kinase protein–protein interaction circumvents Nogo66 to promote axon outgrowth” (BMC Neuroscience, 2015).
Residue numbers refer to the chain shown, from its start.

Columns and labels:
[1] = molecular target: T1, Shroom3 (Mus musculus, UniProt Q9QXN0); assay: ELISA of purified SD2 / biotin-R2-C1 interaction; wash-out irreversibility, DTT block and Cys-to-Ala mutagenesis; format: binding
T1 construct: SD2 domain (aa 1,563–1,986)
T1 sequence (Q9QXN0 1563-1986): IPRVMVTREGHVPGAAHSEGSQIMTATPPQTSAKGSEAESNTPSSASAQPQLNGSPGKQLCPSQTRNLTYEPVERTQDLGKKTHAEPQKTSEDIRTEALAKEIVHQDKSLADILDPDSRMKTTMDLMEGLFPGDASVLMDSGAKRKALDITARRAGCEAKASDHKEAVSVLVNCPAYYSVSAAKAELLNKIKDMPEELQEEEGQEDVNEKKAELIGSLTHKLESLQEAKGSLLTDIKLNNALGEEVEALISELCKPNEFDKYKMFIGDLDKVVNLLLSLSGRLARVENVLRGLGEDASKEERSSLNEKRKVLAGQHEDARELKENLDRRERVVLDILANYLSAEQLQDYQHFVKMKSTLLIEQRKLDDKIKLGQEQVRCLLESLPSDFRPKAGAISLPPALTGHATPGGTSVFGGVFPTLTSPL
T1 sequence (P70336 698-957 partner): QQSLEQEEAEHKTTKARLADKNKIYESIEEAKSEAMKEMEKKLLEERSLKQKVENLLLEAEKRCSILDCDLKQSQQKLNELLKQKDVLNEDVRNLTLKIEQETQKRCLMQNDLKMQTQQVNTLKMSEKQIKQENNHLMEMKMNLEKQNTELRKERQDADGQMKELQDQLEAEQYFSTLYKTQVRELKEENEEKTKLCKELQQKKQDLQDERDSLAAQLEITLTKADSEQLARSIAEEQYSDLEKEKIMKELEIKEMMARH

[2] = molecular target: T2, Shroom3 SD2 domain (aa 1,563–1,986), GST removed (mouse, UniProt Q9QXN0 1563-1986); assay: ELISA; 0.5 µg SD2 immobilised on 96-well Immulon 2B high binding plates; Biotin-R2C1 0 to 1,778 nM (11 points) for 1 h at 25°C in TBS-1 (20 mM Tris HCl, 150 mM KCl, 0.5% Triton X-100, pH 7.9) with 0.5% BSA; NeutrAvidin-HRP; apparent Kd, hyperbolic fit; conditions: both partners purified
T2 construct: Shroom3 SD2 domain, mouse, aa 1,563-1,986; Expressed as GST-SD2 from pGST-SD2; also called WT SD2; SD2 wild type; source: E. coli, purified (glutathione agarose; GST removed with TEV protease)
T2 sequence (looked up): T1 sequence (Q9QXN0 1563-1986)

[3] = molecular target: T3, SD2 Cys254Ala (ELISA) (mouse, UniProt Q9QXN0 1563-1986, Cys254Ala (SD2 numbering; Cys 1816 in full length mouse Shroom3)); assay: ELISA; 150 ng SD2 (wild type or mutant) immobilised on 384-well high-binding plates; CCG-17444 dilutions 30 min at 25°C, then 10 ng biotin-R2C1 (1.5 ng in Figure 4) 1 h at 25°C; buffer A (20 mM Tris HCl, 150 mM KCl, 0.05% Triton X-100, 0.5% BSA, pH 7.9); NeutrAvidin-HRP; also with 1 mM DTT; conditions: both partners purified
T3 construct: Shroom3 SD2 domain, mouse, aa 1,563-1,986; also called Cys254Ala mutant
T3 sequence (looked up): T1 sequence (Q9QXN0 1563-1986) with C254A

[4] = molecular target: T4, SD2 Cys379Ala (ELISA) (mouse, UniProt Q9QXN0 1563-1986, Cys379Ala (SD2 numbering; mouse Shroom3 Cys1941)); assay: as above; conditions: both partners purified
T4 construct: Shroom3 SD2 domain, mouse, aa 1,563-1,986; SD2 Cys379 corresponds to mouse Shroom3 Cys1941 (AAF13269)
T4 sequence (looked up): T1 sequence (Q9QXN0 1563-1986) with C379A

[5] = molecular target: T5, SD2 Cys254Ala Cys379Ala (ELISA) (mouse, UniProt Q9QXN0 1563-1986, Cys254Ala (SD2 numbering; Cys 1816 in full length mouse Shroom3) | Cys379Ala …); assay: as above; conditions: both partners purified
T5 construct: Shroom3 SD2 domain, mouse, aa 1,563-1,986; also called double mutant SD2 Cys254Ala Cys379Ala; double Cys to Ala mutant
T5 sequence (looked up): T1 sequence (Q9QXN0 1563-1986) with C254A, C379A

[6] = molecular target: T2, Shroom3 SD2 domain (aa 1,563–1,986), …; assay: ELISA; competition: SD2 immobilised; 100 ng Biotin-R2C1 incubated 1 h at 25°C with unlabeled R2C1 (1–10 µg); NeutrAvidin-HRP; conditions: both partners purified
[7] = molecular target: T6, GST-SD2 wild type (mouse Shroom3 aa 1,563–1,986) (mouse, UniProt Q9QXN0 1563-1986); assay: pull-down; wild type or mutant GST-SD2 (5 μg) bound to glutathione agarose resin, incubated overnight with His-Sumo-R2-C1 (12.5 μg); washed 3× Triton IP buffer, 1× PBS; SDS-PAGE, Coomassie G-250; conditions: both partners purified
T6 construct: Shroom3 SD2 domain, mouse, aa 1,563-1,986; also called wild type GST-SD2; WT SD2
T6 sequence (looked up): T1 sequence (Q9QXN0 1563-1986)

[8] = molecular target: T7, GST-SD2 Cys254Ala (mouse Shroom3 aa 1,563–1,986, Cys1816Ala) (mouse, UniProt Q9QXN0 1563-1986, Cys254Ala (SD2 numbering; Cys 1816 in full length mouse Shroom3)); assay: as above; conditions: both partners purified
T7 construct: Shroom3 SD2 domain, mouse, aa 1,563-1,986; Probably made in E. coli like the wild type; also called mutant GST-SD2; Cys254Ala SD2
T7 sequence (looked up): T1 sequence (Q9QXN0 1563-1986) with C254A

Molecule: CC1(C)CC(=O)C2=C(C1)Nc1[nH]c(=S)[nH]c(=O)c1C2c1cccs1 (centres unmarked) [CCG-17444]
- IC50 [1]: 12.4 ± 2.3 µM

B1: Biotinylated HisSUMO-R2C1 (mouse ROCK II aa 698–957) (domain or fragment, UniProt P70336 698-957, looked up)
chain: T1 sequence (P70336 698-957 partner)
modifications: biotin (NHS-PEO4-biotin; on average four biotin molecules per 1 mol of protein)
notes: No removal of the His-SUMO tag is described; also called Biotin-R2C1; biotinylated R2-C1; source: E. coli, purified (HisPur Ni-NTA), biotinylated with NHS-PEO4-biotin
- Kd [2]: 4.9 nM
- binding result [3]: binds
- binding result [4]: binds
- binding result [5]: binds

B2: HisSUMO-R2C1 (mouse ROCK II aa 698–957), unlabeled (domain or fragment, UniProt P70336 698-957, looked up)
chain: T1 sequence (P70336 698-957 partner)
notes: also called Unlabeled R2-C1; unlabeled R2C1; source: E. coli, purified (HisPur Ni-NTA)
- binding result [6]: binds
- binding result [7]: binds
- binding result [8]: binds
